In patent publication US12084523 (TECHNION RESEARCH AND DEVELOPMENT FOUNDATION, dated 2024):
Starred links: 1 amine or outer side, 2 acyl side, 3 side chain; linkers in the order of their positions; H or OH if unused. Positions of bridges follow the written chain, without caps; N, C: chain ends. Non-standard residues stand in square brackets, D forms with d. No end group written: not given here. mClBz = N-terminal chlorobenzyl thioether anchor (M*) that cyclises onto the Cys, the meta form of the mClBz/pClBz pair, O=C(c1cccc(C[*:3])c1)[*:2]; code ∗ = not defined here

B1: Ub4i cyclic peptide (peptide)
peptide: WGWFDDLYLFVAYCG
modifications: position 1 is ClAc-D-Trp (M* of Table 2); macrocycle closed between the N-terminal chloroacetyl group and the Cys
notes: also called U4i
B2: Ub2i cyclic peptide (peptide)
peptide: {CH2CO}-[dW]GWFDNLYWYVTHCG
modifications: thioether N-14
notes: also called U2i
B3: Ub4ix cyclic peptide (peptide)
peptide: {code ∗}-[dW]LYLDDSGDWWICG
modifications: thioether N-13 (inferred); reading uncertain; also: printed as *WLYLDDSGDWWICG
notes: also called U4ix; Ub4xi
B4: Ub2ii cyclic peptide (peptide)
peptide: WWYDREYYYLGYGCG
modifications: position 1 is ClAc-D-Trp (M* of Table 2); macrocycle closed between the N-terminal chloroacetyl group and the Cys
notes: also called U2ii
B5: J08_mClBz (peptide)
peptide: mClBz-GWFDDLYLFVAYCG
modifications: bridge N-13; not fully specified (bridges)
notes: also called J08 (M* = mClBz)
B6: J08_mClBz_L6E (peptide)
peptide: mClBz-GWFDDEYLFVAYCG
modifications: bridge N-13; not fully specified (bridges)

Key:
[1] = molecular target: T1, biotin-^K48Ub2 (chemically synthesized K48-linked di-ubiquitin, biotin on the distal Ub) (UniProt P0CG48 1-76, isopeptide bond from the C-terminus of the distal Ub to Lys48 of the proximal Ub; biotin at the N-terminus of the distal Ub); test: SPR, K48-Ub2
T1 construct: mature; also called Lys48-linked ubiquitin dimer

[2] = molecular target: T2, biotin-^K48Ub4 (chemically synthesized K48-linked tetra-ubiquitin, biotin on the distal Ub) (UniProt P0CG48 1-76, isopeptide bonds from the C-terminus of each Ub to Lys48 of the next Ub; biotin at the N-terminus of the distal Ub); test: SPR (Biacore T100), biotin-Ub chain on the chip, peptide in flow; error 7
T2 construct: mature; also called Ub tetramer

[3] = molecular target: T1, biotin-^K48Ub2 (chemically synthesized …); test: SPR (Biacore T100), biotin-Ub chain on the chip, peptide in flow; error 28
[4] = molecular target: T1, biotin-^K48Ub2 (chemically synthesized …); test: SPR, K48-Ub2; remark: listed apart in the source
[5] = molecular target: T2, biotin-^K48Ub4 (chemically synthesized …); test: SPR (Biacore T100), biotin-Ub chain on the chip, peptide in flow; error 4
[6] = molecular target: T2, biotin-^K48Ub4 (chemically synthesized …); test: SPR (Biacore T100), biotin-Ub chain on the chip, peptide in flow; error 0.002
[7] = molecular target: T2, biotin-^K48Ub4 (chemically synthesized …); test: SPR (Biacore T100), biotin-Ub chain on the chip, peptide in flow; error 7.30E+05
[8] = molecular target: T1, biotin-^K48Ub2 (chemically synthesized …); test: SPR (Biacore T100), biotin-Ub chain on the chip, peptide in flow; error 8
[9] = molecular target: T1, biotin-^K48Ub2 (chemically synthesized …); test: SPR, K48-Ub2; mClBz anchor; wildtype J08, no mutations

Binder	Kd [1]	Kd [4]	Kd [5]	other results
B1	90 nM	90 nM		Kd [2]: 26 nM; Kd [3]: 91 nM
B2			14 nM	
B3				koff [6]: 0.021 s⁻¹; kon [7]: 3.52e+06 M⁻¹ s⁻¹
B4		33 nM	14 nM	Kd [8]: 33 nM
B5		10 nM		Kd [9]: 10 nM
B6	5 nM	5 nM		
